Source: EP0672680A1

Assays:
[1] = biological target: bovine lung-derived ANP receptor (bovine); experiment: competition radioligand binding: displacement of 125I-rat ANP from bovine lung membrane fraction, filter assay
[2] = biological target: BK receptor derived from guinea pig ilea (guinea pig); experiment: competition radioligand binding: inhibition of 3H-BK (200 pM) binding to guinea pig ileum membrane fraction; test compound at 10^-7 M
[3] = biological target: BK receptor derived from guinea pig ilea (guinea pig); experiment: competition radioligand binding: inhibition of 3H-BK (200 pM) binding to guinea pig ileum membrane fraction; test compound at 10^-8 M

Chain of bovine lung-derived ANP receptor (bovine) (P10730 42-537): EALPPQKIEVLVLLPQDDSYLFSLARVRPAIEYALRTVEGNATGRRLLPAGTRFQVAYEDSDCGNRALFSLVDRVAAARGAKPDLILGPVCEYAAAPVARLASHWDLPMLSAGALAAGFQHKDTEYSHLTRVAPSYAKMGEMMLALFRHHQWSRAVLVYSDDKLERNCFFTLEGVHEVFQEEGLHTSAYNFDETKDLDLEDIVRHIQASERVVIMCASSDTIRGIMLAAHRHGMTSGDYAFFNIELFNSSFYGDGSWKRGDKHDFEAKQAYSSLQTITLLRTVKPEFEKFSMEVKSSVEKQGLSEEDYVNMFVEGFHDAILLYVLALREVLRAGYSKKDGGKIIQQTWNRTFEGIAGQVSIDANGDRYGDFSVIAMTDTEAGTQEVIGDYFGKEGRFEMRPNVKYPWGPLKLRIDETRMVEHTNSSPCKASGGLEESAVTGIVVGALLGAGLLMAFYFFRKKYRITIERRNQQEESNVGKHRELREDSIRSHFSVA
Chain of BK receptor derived from guinea pig ilea (guinea pig) (O70526 whole entry): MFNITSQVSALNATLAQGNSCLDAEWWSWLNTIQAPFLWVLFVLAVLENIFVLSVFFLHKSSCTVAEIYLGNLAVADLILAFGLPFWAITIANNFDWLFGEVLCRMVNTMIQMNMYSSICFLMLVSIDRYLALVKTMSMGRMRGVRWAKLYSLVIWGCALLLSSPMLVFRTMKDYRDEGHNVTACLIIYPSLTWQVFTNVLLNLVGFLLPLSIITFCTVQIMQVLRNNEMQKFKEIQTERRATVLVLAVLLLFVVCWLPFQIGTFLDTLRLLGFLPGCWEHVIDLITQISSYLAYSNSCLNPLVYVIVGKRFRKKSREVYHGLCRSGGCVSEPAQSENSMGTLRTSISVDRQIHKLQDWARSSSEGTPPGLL

IC50 [1]	Percentage inhibition (%) [2]	Percentage inhibition (%) [3]	Substance
3.5 nM	–	–	compound (g) (H-Phe-Gly-Gly-Arg-Ile-Asp-Arg-Ile-NH2) (peptide)
2.5 nM	–	–	compound (h) (H-Ala-Phe-Gly-Gly-Arg-Ile-Asp-Arg-Ile-Gly-Ala-Ala-NH2) (peptide)
21 nM	–	–	compound (k) (H-Phe-Gly-Gly-Arg-(N-Me)Ile-Asp-Arg-Ile-NH2) (peptide)
–	68%	20%	compound (m) (H-D-Arg-Arg-Pro-Hyp-Gly-Phe-Ser-D-Phe-Leu-Arg-OH) (peptide)
